The assay has as its target T1, TTE-HsdS (wild type), specificity subunit of the type I methyltransferase from Thermoanaerobacter … (Thermoanaerobacter tengcongensis, UniProt Q8R9Q6 1-398).
T1 construct: HsdS specificity subunit of Thermoanaerobacter tengcongensis, ORF TTE1545, wild type; 398 amino acids (Met1-Leu398), MW 46.5 kDa; Cloned into site 1 of pET-DUET (with N-terminal His tag); source: E. coli BL21 (DE3), co-expressed with TTE-HsdM (wild type or mutant) from pET-DUET; not shown: His tag, N-terminal, kept
T1 sequence (looked up): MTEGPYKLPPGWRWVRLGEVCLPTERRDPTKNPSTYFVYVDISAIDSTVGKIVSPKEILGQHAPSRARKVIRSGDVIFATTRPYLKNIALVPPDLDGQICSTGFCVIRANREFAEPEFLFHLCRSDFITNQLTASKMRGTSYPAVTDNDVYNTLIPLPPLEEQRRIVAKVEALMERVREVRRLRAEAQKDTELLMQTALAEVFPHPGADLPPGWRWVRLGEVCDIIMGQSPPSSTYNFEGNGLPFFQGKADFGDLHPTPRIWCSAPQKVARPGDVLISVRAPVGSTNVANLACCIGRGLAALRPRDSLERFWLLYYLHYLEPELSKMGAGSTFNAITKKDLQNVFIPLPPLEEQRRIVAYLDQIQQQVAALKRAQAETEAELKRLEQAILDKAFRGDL
Description: AUC; analytical ultracentrifugation of the co-purified wild-type TTE-HsdS/TTE-HsdM complex; molecular weight 165 kDa. The following applies: both partners purified.

B1: TTE-HsdM (wild type), modification subunit of the type I methyltransferase from Thermoanaerobacter tengcongensis (natural protein, UniProt Q8R9Q4 1-507, looked up)
chain: MNGPQTRESLANEIWRACDIMRRDNNCTGIMEYVEHLAWLLFLRFLDAQEEEWEAQAQIAGRPYTPIIDSEYRWRHWATKDWPADELLAFVHGRLIPYLRSLGGDPLRETIRSLFSERNVIVCASGYNLKDVIQIVNEINFHSQDDIFTVSQVYEELLRRLGNENRLAGEFYTPRPVVRFVVELVDPQIGEAVYDPACGTCGFLVEAYLWMKQKERTIEDHRILQERTFFGQEKKPVPAFLGLVNMMLHGVTVPRVMRRNTLEENIRNVSERFDVVVTNPPFGGTEGRHIQQNFPIQSNATELLFLQHIMKKLKPRDGARCGMVVPEGTLFRGGAFAEVKRDLLEQFNLHTVVSLPPGTFAPYSDVKTALIFFERPGPTKEIWYYELPLPEGLKKFSKGNPIQDEHFEEARKLWRGWDAYRKGLGPVEACLSERSWIVPVEEVKKRGYDLTARNPNRSGGEELPSPVEIVAGLLEKEREILSIMEELSELLENEKGNSSRKNDEEEE
notes: HsdM modification subunit of Thermoanaerobacter tengcongensis, ORF TTE1547, wild type; MW 58.5 kDa; Cloning site 2 of pET-DUET, without tag; Two copies in the M2S1 complex; Expressed alone it was insoluble
Turning to B1, the “stoichiometry N” value is 2 HsdM per HsdS.

The values are drawn from PMC3047542, “Structure of HsdS Subunit from Thermoanaerobacter tengcongensis Sheds Lights on Mechanism of Dynamic Opening and Closing of Type I Methyltransferase” (PLoS ONE, 2011).
